This note sets out measurements from paper PMC10399917 (Journal of Molecular Cell Biology, 2023).

In test [1] the target is VF-TMPRSS2 (transmembrane serine protease 2 with N-terminal Venus-FLAG) (UniProt O15393). In words: […].
Test [2] has as its target His-TMPRSS2 (transmembrane serine protease 2 with N-terminal 6x histidines) (UniProt O15393). In words: […].

Chain of His-TMPRSS2 (transmembrane serine protease 2 with N-terminal 6x histidines) (O15393 whole entry): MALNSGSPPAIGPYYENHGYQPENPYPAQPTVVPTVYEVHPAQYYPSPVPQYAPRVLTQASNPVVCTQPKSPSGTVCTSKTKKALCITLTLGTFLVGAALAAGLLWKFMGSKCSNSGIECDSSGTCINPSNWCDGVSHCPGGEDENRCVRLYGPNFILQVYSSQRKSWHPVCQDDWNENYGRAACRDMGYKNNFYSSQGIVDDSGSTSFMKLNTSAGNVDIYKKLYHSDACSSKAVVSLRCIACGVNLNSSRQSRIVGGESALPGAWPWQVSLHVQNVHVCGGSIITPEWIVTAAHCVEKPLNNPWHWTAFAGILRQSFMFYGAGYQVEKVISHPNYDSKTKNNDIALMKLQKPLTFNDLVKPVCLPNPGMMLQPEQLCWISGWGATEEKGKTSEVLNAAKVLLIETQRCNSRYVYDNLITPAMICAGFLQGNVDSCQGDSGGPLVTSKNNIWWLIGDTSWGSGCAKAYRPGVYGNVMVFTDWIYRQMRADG
Chain of VF-TMPRSS2 (transmembrane serine protease 2 with N-terminal Venus-FLAG) (O15393 whole entry): as above

As to “SPIKE-His (SARS-CoV-2 SPIKE glycoprotein with C-terminal 6x histidines) (from UniProt P0DTC2 14-1273) (natural protein)”, the S/B ratio (TR-FRET signal-to-background) in test [1] was more than 23.
On to “SPIKE-FLAG (SARS-CoV-2 SPIKE glycoprotein with C-terminal FLAG) (from UniProt P0DTC2 14-1273) (natural protein)”, for which the S/B ratio (TR-FRET signal-to-background) in test [2] was more than 23.
Consider “SPIKE-VF (SARS-CoV-2 SPIKE glycoprotein with C-terminal Venus-FLAG) (from UniProt P0DTC2 14-1273) (natural protein)”, for which, in test [2], the S/B ratio (TR-FRET signal-to-background) was 23.
